Experimental data as given in patent US20140199327A1, “METHODS OF PROMOTING DIFFERENTIATION” (Genentech, Inc., priority 2011, published 2014).

How the values were obtained:
Assay in all cases: Flag immunoprecipitation of DUBs from 293T cells cotransfected with ID2, MG-132 treated (FIG. 2B)
[1] = target: T1, SENP5-Flag (human SENP5 with C-terminal Flag epitope) (human, UniProt Q96HI0 1-755, limits assumed)
T1 sequence (looked up): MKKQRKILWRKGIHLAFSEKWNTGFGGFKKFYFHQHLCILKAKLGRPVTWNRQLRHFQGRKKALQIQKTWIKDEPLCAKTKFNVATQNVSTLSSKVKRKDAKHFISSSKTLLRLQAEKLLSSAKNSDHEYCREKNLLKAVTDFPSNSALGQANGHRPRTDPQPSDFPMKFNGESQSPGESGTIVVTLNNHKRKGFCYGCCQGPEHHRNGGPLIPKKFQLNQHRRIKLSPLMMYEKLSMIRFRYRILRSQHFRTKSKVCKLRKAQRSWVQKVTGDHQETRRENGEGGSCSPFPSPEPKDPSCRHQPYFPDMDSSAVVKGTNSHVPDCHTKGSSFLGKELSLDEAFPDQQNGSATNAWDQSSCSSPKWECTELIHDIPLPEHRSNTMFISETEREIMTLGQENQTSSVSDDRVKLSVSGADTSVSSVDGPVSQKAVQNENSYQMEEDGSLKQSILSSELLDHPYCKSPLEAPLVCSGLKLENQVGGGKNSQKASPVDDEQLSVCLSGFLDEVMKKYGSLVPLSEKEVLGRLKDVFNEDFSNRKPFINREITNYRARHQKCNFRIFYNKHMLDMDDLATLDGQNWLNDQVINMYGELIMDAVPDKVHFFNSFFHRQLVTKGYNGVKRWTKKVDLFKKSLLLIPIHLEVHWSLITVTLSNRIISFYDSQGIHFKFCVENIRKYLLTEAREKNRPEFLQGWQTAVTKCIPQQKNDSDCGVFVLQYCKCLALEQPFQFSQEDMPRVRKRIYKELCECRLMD
Description: (§1) FIG. 2. […] (A) Western blot (WB) analysis of 293T transfected with Flag-tagged deubiquitinases (DUBs) or an empty vector (−). Where indicated, cells were treated with […] MG-132 for 4 hr. (B) Flag-tagged DUBs were immunoprecipitated (IP) from 293T cells cotransfected with ID2 and treated with […] MG-132 for 6 hr.

[2] = target: T2, OTUD5-Flag (human OTUD5 with C-terminal Flag epitope) (human, UniProt Q96G74 1-571, limits assumed)
T2 sequence (looked up): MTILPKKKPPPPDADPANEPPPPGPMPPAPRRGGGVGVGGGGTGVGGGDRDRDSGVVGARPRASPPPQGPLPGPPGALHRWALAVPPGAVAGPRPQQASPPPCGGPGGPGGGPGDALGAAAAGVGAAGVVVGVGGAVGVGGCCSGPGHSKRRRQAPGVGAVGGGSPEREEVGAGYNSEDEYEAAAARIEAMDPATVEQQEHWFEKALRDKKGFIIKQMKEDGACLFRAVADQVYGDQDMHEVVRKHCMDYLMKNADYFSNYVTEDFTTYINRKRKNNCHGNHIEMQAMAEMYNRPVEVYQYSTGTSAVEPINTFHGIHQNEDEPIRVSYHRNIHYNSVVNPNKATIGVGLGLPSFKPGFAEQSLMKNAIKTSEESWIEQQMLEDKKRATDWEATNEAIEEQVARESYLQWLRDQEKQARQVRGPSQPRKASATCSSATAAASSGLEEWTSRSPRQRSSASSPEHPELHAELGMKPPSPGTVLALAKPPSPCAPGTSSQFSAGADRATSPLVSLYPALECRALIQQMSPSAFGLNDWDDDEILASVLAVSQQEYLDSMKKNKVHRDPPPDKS
Description: as §1

[3] = target: USP9Y-Flag (human USP9Y with C-terminal Flag epitope) (human, UniProt O00507 1-2555, limits assumed)
Description: as §1

[4] = target: T3, USP36-Flag (human USP36 with C-terminal Flag epitope) (human, UniProt Q9P275 1-1123, limits assumed)
T3 sequence (looked up): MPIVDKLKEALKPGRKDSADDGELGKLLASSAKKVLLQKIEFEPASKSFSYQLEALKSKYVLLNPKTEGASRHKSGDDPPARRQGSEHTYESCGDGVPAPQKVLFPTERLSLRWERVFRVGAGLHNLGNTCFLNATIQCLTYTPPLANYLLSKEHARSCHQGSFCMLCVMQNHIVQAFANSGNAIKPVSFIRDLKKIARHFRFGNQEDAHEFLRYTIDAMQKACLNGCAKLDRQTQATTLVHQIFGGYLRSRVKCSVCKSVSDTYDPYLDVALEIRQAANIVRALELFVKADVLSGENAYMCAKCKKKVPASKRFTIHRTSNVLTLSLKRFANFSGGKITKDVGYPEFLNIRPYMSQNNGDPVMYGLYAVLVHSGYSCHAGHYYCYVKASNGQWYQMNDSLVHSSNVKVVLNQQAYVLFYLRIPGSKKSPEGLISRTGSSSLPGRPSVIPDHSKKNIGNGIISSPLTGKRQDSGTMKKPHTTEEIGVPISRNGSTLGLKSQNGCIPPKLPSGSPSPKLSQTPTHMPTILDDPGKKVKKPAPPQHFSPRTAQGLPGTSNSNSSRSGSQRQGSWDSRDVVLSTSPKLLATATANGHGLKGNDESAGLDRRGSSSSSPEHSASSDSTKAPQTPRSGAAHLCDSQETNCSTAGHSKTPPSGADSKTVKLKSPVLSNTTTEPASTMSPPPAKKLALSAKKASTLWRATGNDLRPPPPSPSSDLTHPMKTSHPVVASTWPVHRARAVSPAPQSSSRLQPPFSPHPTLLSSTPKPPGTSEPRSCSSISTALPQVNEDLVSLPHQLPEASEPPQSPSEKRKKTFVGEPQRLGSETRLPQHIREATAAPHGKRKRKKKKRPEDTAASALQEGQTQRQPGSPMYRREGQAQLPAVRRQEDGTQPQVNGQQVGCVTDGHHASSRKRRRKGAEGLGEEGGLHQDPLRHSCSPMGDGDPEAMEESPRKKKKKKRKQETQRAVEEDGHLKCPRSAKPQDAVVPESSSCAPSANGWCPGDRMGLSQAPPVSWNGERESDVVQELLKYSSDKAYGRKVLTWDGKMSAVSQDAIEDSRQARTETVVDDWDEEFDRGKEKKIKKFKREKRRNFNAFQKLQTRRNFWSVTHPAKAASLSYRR
Description: as §1

Measured: binding result

Chain of USP9Y-Flag (human USP9Y with C-terminal Flag epitope) (O00507 whole entry): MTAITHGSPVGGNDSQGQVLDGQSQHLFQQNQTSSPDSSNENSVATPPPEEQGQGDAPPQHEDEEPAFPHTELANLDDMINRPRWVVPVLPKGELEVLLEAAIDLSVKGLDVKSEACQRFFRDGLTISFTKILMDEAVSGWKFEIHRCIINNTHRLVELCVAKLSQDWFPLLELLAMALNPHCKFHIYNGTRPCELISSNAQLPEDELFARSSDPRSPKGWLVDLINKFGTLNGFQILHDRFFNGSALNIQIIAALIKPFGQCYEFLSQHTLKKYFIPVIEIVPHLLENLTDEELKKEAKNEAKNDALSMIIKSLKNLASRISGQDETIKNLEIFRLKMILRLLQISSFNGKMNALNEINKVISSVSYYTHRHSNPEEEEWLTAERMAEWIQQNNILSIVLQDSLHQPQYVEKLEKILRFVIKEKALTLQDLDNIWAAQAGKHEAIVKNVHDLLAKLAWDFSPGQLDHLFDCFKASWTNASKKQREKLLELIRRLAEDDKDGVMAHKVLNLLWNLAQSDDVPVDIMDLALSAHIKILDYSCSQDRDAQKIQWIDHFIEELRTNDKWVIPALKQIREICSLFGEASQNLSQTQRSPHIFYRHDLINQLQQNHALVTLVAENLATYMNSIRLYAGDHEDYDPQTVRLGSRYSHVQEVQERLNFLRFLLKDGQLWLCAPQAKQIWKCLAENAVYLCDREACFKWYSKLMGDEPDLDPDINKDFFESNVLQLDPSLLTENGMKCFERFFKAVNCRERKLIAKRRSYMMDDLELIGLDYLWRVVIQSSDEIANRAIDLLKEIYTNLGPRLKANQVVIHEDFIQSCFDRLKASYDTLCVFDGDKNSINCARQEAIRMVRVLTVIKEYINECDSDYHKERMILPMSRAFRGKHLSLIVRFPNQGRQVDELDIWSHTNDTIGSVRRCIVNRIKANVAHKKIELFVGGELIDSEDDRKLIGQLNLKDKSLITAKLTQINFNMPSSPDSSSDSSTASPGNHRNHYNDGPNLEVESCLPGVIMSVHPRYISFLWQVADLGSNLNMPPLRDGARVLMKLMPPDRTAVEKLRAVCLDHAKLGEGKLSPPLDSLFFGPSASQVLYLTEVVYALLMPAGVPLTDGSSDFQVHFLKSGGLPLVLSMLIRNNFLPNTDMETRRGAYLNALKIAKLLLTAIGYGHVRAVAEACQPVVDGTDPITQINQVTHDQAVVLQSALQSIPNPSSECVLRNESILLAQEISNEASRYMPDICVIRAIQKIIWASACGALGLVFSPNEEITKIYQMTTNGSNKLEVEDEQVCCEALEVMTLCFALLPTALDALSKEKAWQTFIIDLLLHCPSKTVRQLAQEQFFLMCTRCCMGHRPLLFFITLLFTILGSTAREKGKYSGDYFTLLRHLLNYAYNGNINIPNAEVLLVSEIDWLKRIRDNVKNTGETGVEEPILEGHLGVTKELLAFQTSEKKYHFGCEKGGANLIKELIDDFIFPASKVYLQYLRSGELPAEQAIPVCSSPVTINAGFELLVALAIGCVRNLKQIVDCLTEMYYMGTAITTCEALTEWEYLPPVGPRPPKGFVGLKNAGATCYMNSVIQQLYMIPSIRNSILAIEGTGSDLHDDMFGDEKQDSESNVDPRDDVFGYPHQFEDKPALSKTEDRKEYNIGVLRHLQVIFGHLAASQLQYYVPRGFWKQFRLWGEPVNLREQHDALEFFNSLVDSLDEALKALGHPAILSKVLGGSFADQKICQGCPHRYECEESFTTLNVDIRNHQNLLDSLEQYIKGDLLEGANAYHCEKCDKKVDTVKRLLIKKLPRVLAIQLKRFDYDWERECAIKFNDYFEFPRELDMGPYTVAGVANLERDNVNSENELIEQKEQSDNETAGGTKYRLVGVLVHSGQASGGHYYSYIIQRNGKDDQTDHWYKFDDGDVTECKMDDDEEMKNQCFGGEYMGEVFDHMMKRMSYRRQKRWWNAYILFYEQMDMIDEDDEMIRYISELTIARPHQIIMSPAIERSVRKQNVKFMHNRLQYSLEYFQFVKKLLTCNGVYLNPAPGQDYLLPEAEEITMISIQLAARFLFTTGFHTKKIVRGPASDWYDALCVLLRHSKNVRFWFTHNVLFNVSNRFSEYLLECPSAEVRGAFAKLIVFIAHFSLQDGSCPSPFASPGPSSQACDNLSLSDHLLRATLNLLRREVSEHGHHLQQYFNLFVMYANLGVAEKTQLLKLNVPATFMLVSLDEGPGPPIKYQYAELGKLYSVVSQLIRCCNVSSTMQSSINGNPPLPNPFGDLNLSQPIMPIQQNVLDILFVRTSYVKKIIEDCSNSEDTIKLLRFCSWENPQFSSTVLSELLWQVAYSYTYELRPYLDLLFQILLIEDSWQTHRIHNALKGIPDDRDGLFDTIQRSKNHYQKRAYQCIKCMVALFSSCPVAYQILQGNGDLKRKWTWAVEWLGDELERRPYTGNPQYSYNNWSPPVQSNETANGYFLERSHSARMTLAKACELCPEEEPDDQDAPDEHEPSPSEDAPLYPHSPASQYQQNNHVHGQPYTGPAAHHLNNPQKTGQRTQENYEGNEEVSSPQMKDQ

B1: ID2 (co-transfected / co-expressed in 293T cells) (other)
chain: MKAFSPVRSVRKNSLSDHSLGISRSKTPVDDPMSLLYNMNDCYSKLKELVPSIPQNKKVSKMEILQHVIDYILDLQIALDSHPTIVSLHHQRPGQNQASRTPLTTLNTDISILSLQASEFPSELMSNDSKALCG
notes: ID2 was amplified from Jurkat-derived cDNA; The methods describe only a C-terminal Flag version in pRK2001
no binding: [1] | [2] | [3] | [4]
